What was measured:
[1] = biological target: T1, Human CD200R, full length, on transduced U937 cells (U937-CD200R) (human, UniProt Q8TD46 25-348); assay: cell-based or functional assay
T1 sequence (looked up): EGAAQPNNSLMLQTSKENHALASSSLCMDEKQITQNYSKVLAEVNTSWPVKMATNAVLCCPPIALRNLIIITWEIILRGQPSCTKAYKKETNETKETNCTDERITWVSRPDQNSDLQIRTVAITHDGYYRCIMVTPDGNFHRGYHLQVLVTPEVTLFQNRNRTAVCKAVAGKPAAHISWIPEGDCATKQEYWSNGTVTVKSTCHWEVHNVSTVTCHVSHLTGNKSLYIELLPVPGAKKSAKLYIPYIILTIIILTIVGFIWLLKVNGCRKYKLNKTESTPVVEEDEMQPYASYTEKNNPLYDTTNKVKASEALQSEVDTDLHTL

[2] = biological target: T2, Recombinant Cyno CD200R, His-tagged (Creative Biomart CD200R1-3483C) (cynomolgus monkey); assay: SPR (BIAcore T200), CD200-Fc captured on anti-human Fc, cyno CD200R flowed, 25 C, 1:1 fit
T2 construct: Bought; also called cynomolgus CD200R1; cynomolgus CD200R
Experimental: The experiments were performed on a GE Healthcare BIAcore T200. Human, cynomolgus and mouse CD200R proteins were purchased from Creative Biomart (CD200R1-320H, CD200R1-3483C, CD200R1-3280M). All measurements were performed in duplicate.
For human CD200 constructs: anti-human Fc (GE Healthcare) was covalently immobilized on a BIAcore CM5 sensor chip (Cytiva, BR100530) by amine coupling using a Cytiva kit (BR100839) following the manufacturer's instructions, targeting immobilization of 8,000-11,000 RU. CD200-Fc proteins were diluted to 0.5 μg/mL to 4 μg/mL in running Buffer (1×HBS-EP+pH7.4 (Cytiva BR100669), HEPES Buffered Saline pH 7.4 containing 3 mM EDTA and 0.05% v/v Surfactant P20) and flowed for 25 to 100 seconds at 10 μL/min over the immobilized Anti-Human IgG Fc, with a stabilization time of 60 seconds. […]
For mouse CD200 constructs, muCD200R-Fc (Creative Biomart CD200R1-458M) diluted to 1 μg/mL in running buffer was flowed over the immobilized Anti-Human IgG Fc, with CD200 monomers serially diluted and flowed over captured CD200R. […] Data analysis: experimental sensorgrams were analyzed in BIAevaluation software (GE Healthcare). […] Closeness of fit was determined by algorithms provided by the manufacturer in the BIAevaluation software, and data accepted if the Chi² value was less than 10% of Rₘₐₓ, and the U value was less than or equal to 15.

[3] = biological target: T3, Recombinant Human CD200R, His-tagged (Creative Biomart CD200R1-320H) (human, UniProt Q8TD46 27-266); assay: SPR, CD200R flowed over immobilized CD200-Fc, 25 C, 1:1 fit; reference is wild-type CD200-Fc DS-155
T3 construct: Bought; also called human CD200 receptor; not shown: His tag
T3 sequence (looked up): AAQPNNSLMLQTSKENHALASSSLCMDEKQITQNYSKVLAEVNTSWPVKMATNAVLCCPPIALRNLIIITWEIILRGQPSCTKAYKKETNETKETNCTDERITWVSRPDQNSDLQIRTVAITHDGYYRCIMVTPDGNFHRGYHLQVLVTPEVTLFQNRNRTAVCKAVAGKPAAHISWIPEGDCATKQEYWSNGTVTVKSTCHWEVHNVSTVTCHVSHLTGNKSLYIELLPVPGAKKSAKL
Experimental: For human CD200 constructs: anti-human Fc (GE Healthcare) was covalently immobilized on a BIAcore CM5 sensor chip (Cytiva, BR100530) by amine coupling using a Cytiva kit (BR100839) following the manufacturer's instructions, targeting immobilization of 8,000-11,000 RU. CD200-Fc proteins were diluted to 0.5 μg/mL to 4 μg/mL in running Buffer (1×HBS-EP+pH7.4 (Cytiva BR100669), HEPES Buffered Saline pH 7.4 containing 3 mM EDTA and 0.05% v/v Surfactant P20) and flowed for 25 to 100 seconds at 10 μL/min over the immobilized Anti-Human IgG Fc, with a stabilization time of 60 seconds. Between 35 and 250 RUs of CD200-Fc were captured, with higher RUs used for cynomolgus CD200R binding experiments. […] Analysis temperature was 25° C. This was followed by regeneration of the surface with 30-90 second pulse of 3M MgCl₂ flowed at […] flow rate followed by stabilization of the surface with 60 second flow of running buffer.
Curves obtained were fitted to 1:1 Langmuir binding model by setting Rmax and RI as local parameters. Rate equations using standard parameters (e.g. ligand concentration, time) were used for iterative curve fitting. […] Means of 2 experiments carried out on the same day are shown with standard deviation. Residue numbering for CD200 proteins refers to the pre-protein, containing a signal peptide which is cleaved during insertion into the endoplasmic reticulum.

[4] = biological target: T1, Human CD200R, full length, on …; assay: Flow cytometry on U937-CD200R cells, 4 hours incubation at 37 C, fluorescent anti-human secondary antibody
Experimental: Construct treatment (50 μL) was performed starting from 10 μg/mL with 3-fold dilutions up to 10 concentrations with FACS buffer and incubated for 1-hour, 4-hours and 24-hours at 37° C. At the end of each time point, cells were collected and washed. 10 μg/mL of anti-human secondary antibody was added and incubated for 30 minutes at 4° C. Cells were washed post incubation and stained to check viability (1 μL dye per million cells per mL 1×PBS) for 20 minutes at 4° C. Cells were washed and fixed with Fixation buffer (100 μL per test) at 4° C. for 20 minutes. Post incubation, cells were washed and the pellet was re-suspended in FACS buffer (100 μL per test) for data acquisition on flow cytometer.

[5] = biological target: T4, Cyno PBMCs; assay: Flow cytometry, % binding on cynomolgus PBMCs gated on live cells, 1 hour at 37 C, anti-human secondary antibody; the target protein on the cells is not named
T4 construct: No receptor was assigned; also called cynomolgus monkey PBMCs, gated on live cells
Experimental: PBMC cells were re-suspended with a density of 0.1 million cells per assay point, with 50 μL FACS buffer (1×PBS+2% FBS). Dilutions of huCD200-Fc in 50 μL were added, starting at 10 μg/mL with 3-fold dilutions up to 10 concentrations with FACS buffer, and incubated for 1-hour at 37° C. At the end of each time point, cells were collected and washed (addition of 200 μL FACS buffer and centrifugation at 1400 RPM). 10 μg/mL of anti-human secondary antibody (Abcam Ab98596) was added together with excess Fc block (Innovex Biosciences no. NB309), and incubated for 30 minutes at 4° C. Cells were washed post incubation and stained to check viability (1 μL dye per million cells per mL 1×PBS, ThermoFisher C34557A) for 20 minutes at 4° C. Cells were washed and fixed with Fixation buffer (100 μL per test, BD Sciences 554655) at 4° C. for 20 minutes. Post incubation, cells were washed and the pellet was re-suspended in FACS buffer (100 μL per test) for data acquisition on the flow cytometer.

t½ [2]: 18.2 s
EC50 [5]: 1.96 µg/mL
B1: DS-118 (mutated human CD200-Fc fusion protein, K130Y, I131Y, IgG4 S228P Fc) (Fc fusion)
chain: QVQVVTQDEREQLYTPASLKCSLQNAQEALIVTWQKKKAVSPENMVTFSENHGVVIQPAYKDKINITQLGLQNSTITFWNITLEDEGCYMCLFNTFGFGYYSGTACLTVYVQPIVSLHYKFSEDHLNITCSATARPAPMVFWKVPRSGIENSTVTLSHPNGTTSVTSILHIKDPKNQVGKEVICQVLHLGTVTDFKQTVNKGPPCPPCPAPEFLGGPSVFLFPPKPKDTLMISRTPEVTCVVVDVSQEDPEVQFNWYVDGVEVHNAKTKPREEQFNSTYRVVSVLTVLHQDWLNGKEYKCKVSNKGLPSSIEKTISKAKGQPREPQVYTLPPSQEEMTKNQVSLTCLVKGFYPSDIAVEWESNGQPENNYKTTPPVLDSDGSFFLYSRLTVDKSRWQEGNVFSCSVMHEALHNHYTQKSLSLSLGK
notes: also called mutated CD200-Fc; mutant CD200-Fc
inhibition of LPS stimulated IL-6 release from U937-CD200R cells, IC50 [1]: 0.01 µg/mL
fold increase in affinity from wild type (DS-155) [3]: > 130 fold
EC50 (read off the curve) [4]: ~0.9 µg/mL

Source: US20260116951A1 (DUCENTIS BIOTHERAPEUTICS, published 2026)
